According to patent US20250179196A1 (Janssen / Centocor, published 2025):
Numbering of substitutions follows the chain as printed.

T1: human IL-23R expressed on the cell surface of stably transfected iLite and HEK cell lines (human, UniProt Q5VWK5 24-629)
T1 construct: whole, on cells; Same receptor on two transfected cell lines; the cell line is named under assay; also called human IL-23R iLite cells; human IL-23R HEK cells
T1 sequence (looked up): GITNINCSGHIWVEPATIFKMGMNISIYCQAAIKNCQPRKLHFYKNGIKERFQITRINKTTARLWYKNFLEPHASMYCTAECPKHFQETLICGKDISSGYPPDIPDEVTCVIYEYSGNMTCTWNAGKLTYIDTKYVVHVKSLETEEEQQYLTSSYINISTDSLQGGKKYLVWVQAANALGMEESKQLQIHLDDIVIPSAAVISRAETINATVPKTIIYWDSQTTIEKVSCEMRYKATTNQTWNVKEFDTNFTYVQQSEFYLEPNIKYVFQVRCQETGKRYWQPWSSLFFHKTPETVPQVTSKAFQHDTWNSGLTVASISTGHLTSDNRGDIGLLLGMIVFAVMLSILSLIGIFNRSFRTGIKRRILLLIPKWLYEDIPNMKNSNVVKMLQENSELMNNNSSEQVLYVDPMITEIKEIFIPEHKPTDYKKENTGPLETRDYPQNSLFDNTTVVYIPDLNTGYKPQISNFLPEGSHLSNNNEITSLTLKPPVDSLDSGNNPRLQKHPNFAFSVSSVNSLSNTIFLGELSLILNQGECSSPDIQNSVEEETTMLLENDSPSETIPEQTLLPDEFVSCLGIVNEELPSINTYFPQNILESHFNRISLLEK

B1: I23RB92 (antibody, mouse IgG2a, kappa, V domains shown)
VH: EVQLQQSGPEVVKPGASVKISCKASGYTFTDHTMDWVKQSHGKNLEWIGYIYPKSGGTGYNQKFKNKATLTVDKSSSTAYMEFHSLTSDDSAVYYCARWGLRRDGFVYWGQGTLVTVSA
VL: DIKMTQSPASLAVSLGQRATISCRASQSVSTSKYDYIHWYQQKSGQPPRLLIKYASNLESGVPARFSGSGSGTDFTLNIHPVEEEDTATYYCQHTWEIPYTFGSGTKLELKR
notes: immunization; mouse IgG2a/kappa
B2: I23RB65 (antibody, mouse IgG2a, kappa, V domains shown)
VH: EVQLQQSGPELVKPGASVKISCKASGYTFTDHTMDWVKQSHGKSLEWIGYIYPKSGNAAYSQKFKSEATLTVDKSSSTAYMEFHSLTSEDSAVYYCARWGLRRDGFTYWGQGTSVTVSS
VL: B1 VL with D1Q, K3V, M4L, K33S, D35N, S44P, R49K, E85D, L110I
notes: as for B1
B3: I23RB268 (antibody, mouse IgG2a, kappa, V domains shown)
VH: QVQLVQSGAEVKKPGSSVKVSCKASGGTFSSYYIHWVRQAPGQGLEWMGGIIPIFGYANYAQKFQGRVTITADESTSTAYMELSSLRSEDTAVYYCARDPGSYGSVYYRRSYYFDYWGQGTLVTVSS
VL: EIVLTQSPATLSLSPGERATLSCRASQSVSSYLAWYQQKPGQAPRLLIYDASNRATGIPARFSGSGSGTDFTLTISSLEPEDFAVYYCQQRSNWPLTFGQGTKVEIKR
notes: phage display; human V, mouse IgG2a/kappa
B4: I23RB270 (antibody, mouse IgG2a, kappa, V domains shown)
VH: QVQLVQSGAEVKKPGSSVKVSCKASGGTFDSYAISWVRQAPGQGLEWMGGIIPISGYANYAQKFQGRVTITADESTSTAYMELSSLRSEDTAVYYCARDLSGGYLGLRTLYYYYFDYWGQGTLVTVSS
VL: B3 VL
notes: as for B3
B5: I23RB269 (antibody, mouse IgG2a, kappa, V domains shown)
VH: QVQLVQSGAEVKKPGSSVKVSCKASGGTFSDASISWVRQAPGQGLEWMGTIIPISGNANYAQKFQGRVTITADESTSTAYMELSSLRSEDTAVYYCARDRYVWYYWDGYFDYWGQGTLVTVSS
VL: not shown
notes: as for B3
B6: I23RB94 (antibody, mouse IgG2a, kappa, V domains shown)
VH: DVQLQESGPELKKPGETVKISCKASGYTFTNYGMNWVRQAPGKSLKWMGWINTNTGEPAYAEEFKGRFAFSLETSASTAYLQINNLKNEDMATYFCARVRQTARATRGYFDVWGTGTTVTVSS
VL: DIVMTQSHKFMSTSVGDRVSITCKASQDVNTAVAWYQQKPGQSPKLLIYSAFYRYPGVPDRFTGSGSGTDFTFTINSVQAEDLAVYCCQQHYTSPLTFGDGTRLEIKR
notes: as for B1
B7: I23RB159 (antibody, mouse IgG2a, kappa, V domains shown)
VH: EVQLQQSGGGLVKPGGSLKLSCAASGFTFSDYGMAWVRQTPRKGPEWIAFISNLAYSVYYSDTVTGRFTISRENAKNTLYLEMSSLRSEDTAMYYCARHGDYRNYGFAYWGLGTTVTVSS
VL: DIVMTQTTSSLSASLGDRVTISCRASQDISNYLNWYQQKPDGTVKLLIYYTSRLHSGVPSRFSGSGSGTDYSLTISNLEQEDIATYFCQQGNTLPWTFGAGTKLELKR
notes: as for B1
B8: I23RB91 (antibody, mouse IgG2a, kappa, V domains shown)
VH: EFQLQQFGPELLKPGASVKISCKASGYTFTDYIMHWVKQSHGKSLEWIGGISPNYGGTGYNGKFKDKATLTVDKSSSTAYMELRSLTSEDSAVYYCARFNNYYYFDYWGQGTTLTVSS
VL: DIKMTQSPSSMYASLGERVTITCKASQDINSYLSWCQQKPGKSPKALIYRANSLVDGVPSRFSGSGSGQDYSLTISSLEYEDMGIYYCLQYDEFPYTFGGGTKLEMKR
notes: as for B1
B9: I23RB177 (antibody, mouse IgG2a, kappa, V domains shown)
VH: EVQLQQSGPELLKPGASVKISCKASGYTITDYTMHWVKQSHGKSLEWIGGINPNYGGTSYNEKFKDKATLTVDKSSSTAYMELRSLTSEDSAVFYCVRGNIYFDYWGQGTTLTVSS
VL: B8 VL with D1N, I2T, K3Q, C36F, S53R, L89Q, Y96R, G100A, M106L
notes: as for B1
B10: I23RB161 (antibody, mouse IgG2a, kappa, V domains shown)
VH: EFQLQQSGPELVKPGASVKISCKASVYAFSSSWMNWVKQRPGKGLEWIGRIYPGDGDTNYNGKFKGKATLTADKSSSTAYMQLSSLTSEDSAVYFCARRYDFGSAMDYWGQGTSVTVSS
VL: DIVMTQSPAILSASPGEKVTMTCRASSSVSYMHWYQQKPGSSPKPWIYATSDLASGAPARFSGSGSGTSYSLTISRVEAEDAATYYCQQWSSNPPTFGGGTKLEIKR
notes: as for B1
B11: I23RB69 (antibody, mouse IgG2a, kappa, V domains shown)
VH: EVQLQQSGAELVKPGASVKISCKASGYSFTGYNMNWVKQSHGKSLEWIGNINPFYDKTSYNQKFKGKATLTVDKASSTAYMQLNSLTSEDSAVYYCARQLGLKGFAYWGQGTLVTVSA
VL: DIVMTQSHKFMSTSVGDRVSITCKASQDVSTAVAWYQQKPGQSPKLLIYSASYRYTGVPDRFTGSGSGTDFTFTISSVQAEDLAVYYCQQHYSTPWTFGGGTKLEMKR
notes: as for B1
B12: I23RB260 (antibody, mouse IgG2a, kappa, V domains shown)
VH: QVQLVQSGAEVKKPGSSVKVSCKASGGTFSSYGISWVRQAPGQGLEWMGGIIPIFGTANYAQKFQGRVTITADESTSTAYMELSSLRSEDTAVYYCARDFGWSLWFDYWGQGTLVTVSS
VL: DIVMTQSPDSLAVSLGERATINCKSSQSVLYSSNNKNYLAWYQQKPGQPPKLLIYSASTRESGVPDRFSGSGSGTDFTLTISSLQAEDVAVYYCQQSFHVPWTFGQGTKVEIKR
notes: as for B3
B13: I23RB180 (antibody, mouse IgG2a, kappa, V domains shown)
VH: QVTLKESGPGILQPSQTLSLTCSFSGFSLSTYGMGVGWIRQPSGKGLEWLANIWWNDSKYHNAALKSRLTISKDTSKNQVFLKIASVDTADTATYYCGRIDGYYECVDVWGTGTSVTVSS
VL: DIQMTQSPASLSASVGETVTITCRASVNIHNYLAWYQQKQGKSPQLLVYNAKTLADGVPSRFSGSGSGTQYSLKINSLQPEDFGSYYCQHFWTTPYMYTFGAGTKLELKR
notes: as for B1
B14: I23RB76 (antibody, mouse IgG2a, kappa, V domains shown)
VH: EVQLQQSGPELVKPGASVKMSCKASGYTFTDYYMNWMKQSHGKSLEWIGYISPKNGRTGYNQKFKGKATLTVDKSSTTAYMELRSLTSEDSAVYYCAKSNGYYALDYWGQGTTVTVSS
VL: DIVLTQSPATLCVTPGETVSLSCRASQNIYKNLHWFQQKSHRSPRLLIKYASDSISGIPSRFTGSGSGTDYTLSINSVKPEDEGIYYCLQGYSTPWTFGGGTKLEIKR
notes: as for B1
B15: I23RB35 (antibody, mouse IgG2a, kappa, V domains shown)
VH: DVQLQESGPGLVKPSQSLSLTCSVTGYSITSGHNWNWIRQFPGNKLEWLGYISYDGSNNYDPSLKNRISITRDTSKNQFFLKLNSVTTEDTATYYCARGGGYFGNSYRVFASWGQGTTVTVSS
VL: DIVLTQSPASLAVSLGQRATISCRASESVDSYGNSFMHWYQQKPGQPPKLLIYRASNLESEIPARFSGRGSGTDFTLTINPVEADDVATYYCQQSNADPYTFGGGTKLEIKR
notes: as for B1
B16: I23RB259 (antibody, mouse IgG2a, kappa, V domains shown)
VH: QVQLVQSGAEVKKPGSSVKVSCKASGGTFSSYGISWVRQAPGQGLEWMGWISPIFGTTNYAQKFQGRVTITADESTSTAYMELSSLRSEDTAVYYCARMMMQSLDYWGQGTLVTVSS
VL: not shown
notes: as for B3

Molecular target: T1, human IL-23R expressed on the cell …
Assay: flow cytometry on human IL-23R HEK cells, Expt D (8-point, 96well)
Procedure: HEK-IL-23R cell concentration response mAb binding (8-point, 96-well assay). […] HEK-IL-23R and HEK-parental cells (12.5 μL of each, 120000 cells total) were plated in 2× replicate on 96-well V-bottom plates (Corning, Cat #3357) into 37° C. warmed Assay medium containing serially diluted IL-23R mAbs to a final volume of 150 μL. IL-23R mAbs were allowed to bind to cells for 30 minutes, at 37° C. […] Cells were next washed twice in ice-cold stain buffer, then resuspended in a final volume of 30 μL with Sytox Green viability dye (ThermoFisher, Cat #S7020). Plates were kept on ice until run for analysis on the iQue. All washes were performed by centrifugation (800 rcf, 3 minutes) followed by flick decantation to remove supernatants. Cell-binding to HEK-IL-23R cells was measured with FlowJo, by gating for single, viable cells and determining the geometric mean fluorescence intensity (MFI) for the 647 detection antibody. Geometric mean fluorescence intensities were plotted over log mAb concentrations fitted with a dose response curve with variable slope using GraphPad Prism.

Row | Binder | EC50 [nM]
1 | B1 | 0.2
2 | B2 | 0.3
3 | B3 | 20.6
4 | B4 | 0.5
5 | B5 | 0.6
6 | B6 | 0.1
7 | B7 | > 50
8 | B8 | 30.3
9 | B9 | > 50
10 | B10 | 0.8
11 | B11 | 0.6
12 | B12 | > 50
13 | B13 | 27.6
14 | B14 | 0.4
15 | B15 | 0.2
16 | B16 | 29.7

Molecular target: T1, human IL-23R expressed on the cell …
Assay: flow cytometry on human IL-23R HEK cells, Expt E (11-point, 384well)
Procedure: HEK-IL-23R cell concentration response mAb binding (11-point, 384-well assay). […] IL-23R mAbs were allowed to bind to cells for 30 minutes, at 37° C. […] Cells were next washed twice in ice-cold stain buffer, then resuspended in a final volume of 10 μL with Sytox Green viability dye (ThermoFisher, Cat #S7020). Plates were kept on ice until run for analysis on the iQue. All washes were performed by centrifugation (800 rcf, 3 minutes) followed by automated aspiration to remove supernatants with plate washers. Cell-binding to HEK-IL-23R cells was measured with FlowJo, by gating for single, viable cells and determining the geometric mean fluorescence intensity (MFI) for the 647 detection antibody. Geometric mean fluorescence intensities were plotted over log mAb concentrations fitted with a dose response curve with variable slope using GraphPad Prism.

Row | Binder | EC50 [nM] | MFI (6.4 nM) [MFI]
17 | B1 | 4 | 376000
18 | B2 | 4 | 275000
19 | B3 | 38.2 | 51900
20 | B4 | 7.2 | 243000
21 | B5 | 14.7 | 96800
22 | B6 | 2.8 | 364000
23 | B14 | 11.9 | 322000
24 | B16 | > 50 | 30900
